Data published in US20020119944A1.

Target: neuropilin-1 on adult rat brain oligodendrocytes (rat) (UniProt Q9QWJ9)

- branching index (BI) of oligodendrocyte process extension (% decrease of BI at 48 h): 81
- half-effect, corresponding to a BI reduction of 50%: 25 ng/mL
Substance: Sema3A (ligand)
